Paper PMC11869522, “Competitive displacement of lipoprotein lipase from heparan sulfate is orchestrated by a disordered acidic cluster in GPIHBP1” (Journal of Lipid Research, 2025)

B1: GPIHBP1^Cluster2-neutral: GPIHBP1 mutant with all Glu/Asp replaced by Gln/Asn at residues 19–30 (protein)
chain: QTQQEEEEEDEDHGPDDYNQQNQNQVQQQQTNRLPGGGSRVLLRCYTCKSLPRDERCNLTQNCSHGQTCTTLIAHGNTESGLLTTHSTWCTDSCQPITKTVEGTQVTMTCCQSSLCNVPPWQSSRVQDPTG
modifications: Tyr18 sulfation absent; one bi-antennary N-linked glycosylation; left off: uPAR domain III, N-terminal, cleaved
B2: GPIHBP1^Cluster1-neutral: GPIHBP1 mutant with all Glu/Asp replaced by Gln/Asn at residues 1–17 (protein)
chain: QTQQQQQQQNQNHGPNNYDEEDEDEVEEEETNRLPGGGSRVLLRCYTCKSLPRDERCNLTQNCSHGQTCTTLIAHGNTESGLLTTHSTWCTDSCQPITKTVEGTQVTMTCCQSSLCNVPPWQSSRVQDPTG
modifications: Tyr18 sulfation present in less than 40%; one bi-antennary N-linked glycosylation; left off: uPAR domain III, N-terminal, cleaved

Test system: hLPL bound to immobilized heparan sulfate
Assay: GPIHBP1-mediated extraction of LPL from HSPGs (SPR, immobilized heparin dp4 fragments)
Assay type: binding, human
Text: To mimic electrostatic conditions found in the sub-endothelial spaces where surface-bound heparan-sulfate proteoglycans (HSPGs) are abundant, we designed a surrogate sensor surface using a streptavidin-coated CM5 sensor chip to capture high densities of biotinylated synthetic heparin dp4 fragments ([28], [29]). The reference surface was loaded with a neutral and non-sulfated fragment (M09 S00 from Iduron), while the active surface was loaded with a negatively charged fragment (M09 S08a from Iduron) containing N- and O-6-linked sulfations on each of the […] glucosamine residues in the DP4 fragment. Only the highly sulfated oligosaccharide bound LPL, and those interactions were transient with high off-rates. Despite the very transient nature of this binding, we created a stable reservoir of hLPL on the sensor surface by combining the fast kinetics of polyelectrolyte interactions with severe mass transport limitation—the latter phenomenon impedes LPL escape from the surface due to the fast rebinding that is favored by the high densities of immobilized heparin fragments (300 fmol/mm^2). For each experiment, 12.5 nM hLPL was loaded for 100 s at a flow rate of 20 μl/min in 10 mM Hepes (pH 7.4), 150 mM NaCl, 4 mM CaCl2, 10% (vol/vol) glycerol, 0.05% (vol/vol) surfactant P20, 1 mg/ml defatted BSA, […], and 0.05% (wt/vol) NaN3.
To compare the ability of GPIHBP1^1–131 and its charge variants to bind and extract hLPL from this dynamic reservoir, we injected twofold serial dilutions of 1.25–200 nM GPIHBP1^1–131; 1.25–200 nM GPIHBP1^Cluster1-neutral; GPIHBP1^Cluster2-neutral; 1.25–200 nM GPIHBP1^34–131; 0.1–1.6 μM GPIHBP1^1–33 with Tyr^18–SO4; or 1.25–200 nM GPIHBP1^34–131 in the presence of 1 μM sulfated GPIHBP1^1–33 for 250 s at 20 μl/min in 10 mM Hepes (pH 7.4), 150 mM NaCl, 4 mM CaCl2, 10% (vol/vol) glycerol, 0.05% (vol/vol) surfactant P20, 0.2 mg/ml fatty acid-free BSA, and 0.05% (wt/vol) NaN3. At the end of each cycle, two consecutive injections of 10 μl 3 M guanidinium chloride regenerated the chip.
GPIHBP1’s ability to displace LPL from its HSPG-bound state in the sub-endothelial spaces is essential for the trans-endothelial trafficking of LPL to the luminal surface of capillary cells ([29]). The importance of the acidic tail in this process is supported by solid evidence from surrogate in vitro models and in vivo studies in gene-edited mice ([28], [29]). It was therefore important to determine the relative impact of the two charge-clusters in GPIHBP1 on their ability to disrupt LPL•HSPG interactions. To gain this insight, we measured the ability of different GPIHBP1 charge variants to displace hLPL from a SPR sensor chip surface coupled with a high density of immobilized small heparin-like fragments ([28]). […]

Molecule | competitive displacement of HSPG-bound hLPL (in words) (12.5–200 nM GPIHBP1 proteins, 0.1–1.6 μM sulfated GPIHBP1^1–33, or GPIHBP1^34–131 with 1 μM sulfated GPIHBP1^1–33) | reduction in hLPL levels on the sensor surface after GPIHBP1 injections (ΔLPL, displaced LPL) (serial twofold dilutions 12.5–200 nM, 250 s at 20 μl/min, pH 7.4, mean ± SD, n = 3)
B1 | neither dislodged any LPL from the surface | –
B2 | – | 35%
